Molecular target: 4-1BB (UniProt Q07011)
Experiment: cell-based or functional assay

4-1BB, sequence (Q07011 24-255 limits assumed): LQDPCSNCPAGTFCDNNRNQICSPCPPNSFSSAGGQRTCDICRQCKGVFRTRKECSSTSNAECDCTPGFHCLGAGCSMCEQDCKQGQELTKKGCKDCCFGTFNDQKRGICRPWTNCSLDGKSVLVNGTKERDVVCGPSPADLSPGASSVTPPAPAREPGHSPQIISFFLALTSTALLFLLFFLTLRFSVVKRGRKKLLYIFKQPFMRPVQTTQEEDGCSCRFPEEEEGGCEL

- expansion of TRAC-1XX-iT cells from D35 to D42: 30 fold
Substance: 4-1BB ligand (from UniProt P41273 1-254)
